The assay has as its target HLA-DR1 (human). Put plainly: competitive binding assay; DR1 format not described.

Experimental findings from patent US20050048066A1 (published 2005) are described below.

In general, IC50 refers to the midpoint of a concentration-inhibition curve. Lower therefore signals inhibition by little substance.

KYVAMVMDHILLGV (peptide, UniProt P02708 420-433, looked up) [AChRα peptide 400-413] came in with an IC50 of 11.7 µM.

For QLIQLINVDEVNQI (peptide, UniProt P02708 56-69, looked up, range 36-49; also called AChRα 36-49) [AChRα peptide 36-49], the IC50 was found to be 11.2 µM. Next, HFVMQRLPLYFIVN (peptide, UniProt P02708 224-237, looked up) [AChRα peptide 204-217]: 1.75 µM.
